From the supplement of paper PMC6379048

Experiments:
Test in all cases: EC50 of free RNA motif oligo competing protein binding to immobilised probe
PARP12 = molecular target: T1, PARP12 (UniProt Q9H0J9)
T1 sequence: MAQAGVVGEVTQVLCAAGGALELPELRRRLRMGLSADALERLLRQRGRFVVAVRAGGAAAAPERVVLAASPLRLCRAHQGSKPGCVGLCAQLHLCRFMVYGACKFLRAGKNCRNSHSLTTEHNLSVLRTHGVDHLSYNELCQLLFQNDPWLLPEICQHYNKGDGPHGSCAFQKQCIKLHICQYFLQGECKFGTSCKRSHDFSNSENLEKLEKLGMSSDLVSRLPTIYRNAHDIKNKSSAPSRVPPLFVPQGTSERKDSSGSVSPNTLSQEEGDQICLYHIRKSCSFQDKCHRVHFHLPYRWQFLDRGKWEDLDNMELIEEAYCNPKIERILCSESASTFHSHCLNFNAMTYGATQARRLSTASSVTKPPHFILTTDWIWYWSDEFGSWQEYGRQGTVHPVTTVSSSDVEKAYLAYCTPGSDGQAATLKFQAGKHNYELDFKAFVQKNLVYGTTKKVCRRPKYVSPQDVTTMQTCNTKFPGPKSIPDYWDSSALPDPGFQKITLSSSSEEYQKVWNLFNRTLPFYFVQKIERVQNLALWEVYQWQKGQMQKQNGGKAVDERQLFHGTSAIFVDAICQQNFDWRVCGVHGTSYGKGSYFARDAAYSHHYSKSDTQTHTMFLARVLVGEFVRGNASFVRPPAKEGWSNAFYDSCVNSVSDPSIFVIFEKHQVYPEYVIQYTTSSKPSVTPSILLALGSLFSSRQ
Outline: (§1)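 Free RNA oligos (0 nM to 30 μM) were pre-incubated with HEK293-FT lysate (2.5 mg protein/well) for 1 h at 4°C, followed by 30 min at 4°C with the same 5′-amino-C6 oligos coupled to NHS-Sepharose beads. Bound proteins were quantified by label-free LC-MS/MS and normalised to the control. EC50 was derived from a four-parameter log-logistic fit, and Kd was obtained by multiplying EC50 by a protein-dependent depletion factor.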

MCM4 = molecular target: T2, MCM4 (UniProt P33991)
T2 sequence: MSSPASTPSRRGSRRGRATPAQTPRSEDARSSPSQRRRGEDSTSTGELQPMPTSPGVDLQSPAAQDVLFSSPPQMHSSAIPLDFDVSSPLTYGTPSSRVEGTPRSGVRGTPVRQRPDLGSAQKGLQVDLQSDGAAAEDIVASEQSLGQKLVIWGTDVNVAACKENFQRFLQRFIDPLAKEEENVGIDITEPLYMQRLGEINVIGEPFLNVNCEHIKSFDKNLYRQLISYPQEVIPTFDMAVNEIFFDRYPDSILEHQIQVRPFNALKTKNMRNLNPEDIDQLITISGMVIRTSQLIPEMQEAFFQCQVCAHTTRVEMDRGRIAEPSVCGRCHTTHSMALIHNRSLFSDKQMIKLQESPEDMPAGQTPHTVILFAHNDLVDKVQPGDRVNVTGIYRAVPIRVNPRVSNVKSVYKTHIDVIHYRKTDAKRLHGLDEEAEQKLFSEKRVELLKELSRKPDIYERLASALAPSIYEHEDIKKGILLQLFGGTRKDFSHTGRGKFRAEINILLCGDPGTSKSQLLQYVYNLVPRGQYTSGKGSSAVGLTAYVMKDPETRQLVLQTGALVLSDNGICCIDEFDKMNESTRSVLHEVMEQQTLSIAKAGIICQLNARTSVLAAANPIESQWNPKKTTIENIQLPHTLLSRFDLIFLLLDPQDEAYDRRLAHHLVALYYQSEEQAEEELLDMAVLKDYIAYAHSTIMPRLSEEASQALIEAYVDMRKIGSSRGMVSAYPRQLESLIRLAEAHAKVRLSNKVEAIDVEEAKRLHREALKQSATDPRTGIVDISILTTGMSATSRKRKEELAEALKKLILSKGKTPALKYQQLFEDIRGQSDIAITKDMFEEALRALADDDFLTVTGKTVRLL
Outline: as §1

ZNFX1 = ZNFX1 (UniProt Q9P2E3)
Outline: as §1

CSTF2T = molecular target: T3, CSTF2T (UniProt Q9H0L4)
T3 sequence: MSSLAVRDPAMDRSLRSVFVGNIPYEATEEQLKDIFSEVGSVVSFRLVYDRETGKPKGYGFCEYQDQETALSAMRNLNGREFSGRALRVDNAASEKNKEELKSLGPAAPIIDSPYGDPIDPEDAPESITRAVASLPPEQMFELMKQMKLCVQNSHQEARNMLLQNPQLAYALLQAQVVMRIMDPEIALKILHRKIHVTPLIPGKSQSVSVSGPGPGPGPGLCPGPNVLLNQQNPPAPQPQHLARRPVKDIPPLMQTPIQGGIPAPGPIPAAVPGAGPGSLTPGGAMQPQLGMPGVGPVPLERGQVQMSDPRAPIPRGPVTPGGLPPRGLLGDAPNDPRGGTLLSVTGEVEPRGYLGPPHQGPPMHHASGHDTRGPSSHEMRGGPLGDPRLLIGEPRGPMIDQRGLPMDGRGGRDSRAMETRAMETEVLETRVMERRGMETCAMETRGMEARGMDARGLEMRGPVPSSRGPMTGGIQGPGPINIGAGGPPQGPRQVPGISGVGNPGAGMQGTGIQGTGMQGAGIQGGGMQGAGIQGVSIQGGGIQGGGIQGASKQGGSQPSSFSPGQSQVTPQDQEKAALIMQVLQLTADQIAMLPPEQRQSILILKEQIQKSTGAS
Outline: as §1

Chain of ZNFX1 (Q9P2E3 whole entry): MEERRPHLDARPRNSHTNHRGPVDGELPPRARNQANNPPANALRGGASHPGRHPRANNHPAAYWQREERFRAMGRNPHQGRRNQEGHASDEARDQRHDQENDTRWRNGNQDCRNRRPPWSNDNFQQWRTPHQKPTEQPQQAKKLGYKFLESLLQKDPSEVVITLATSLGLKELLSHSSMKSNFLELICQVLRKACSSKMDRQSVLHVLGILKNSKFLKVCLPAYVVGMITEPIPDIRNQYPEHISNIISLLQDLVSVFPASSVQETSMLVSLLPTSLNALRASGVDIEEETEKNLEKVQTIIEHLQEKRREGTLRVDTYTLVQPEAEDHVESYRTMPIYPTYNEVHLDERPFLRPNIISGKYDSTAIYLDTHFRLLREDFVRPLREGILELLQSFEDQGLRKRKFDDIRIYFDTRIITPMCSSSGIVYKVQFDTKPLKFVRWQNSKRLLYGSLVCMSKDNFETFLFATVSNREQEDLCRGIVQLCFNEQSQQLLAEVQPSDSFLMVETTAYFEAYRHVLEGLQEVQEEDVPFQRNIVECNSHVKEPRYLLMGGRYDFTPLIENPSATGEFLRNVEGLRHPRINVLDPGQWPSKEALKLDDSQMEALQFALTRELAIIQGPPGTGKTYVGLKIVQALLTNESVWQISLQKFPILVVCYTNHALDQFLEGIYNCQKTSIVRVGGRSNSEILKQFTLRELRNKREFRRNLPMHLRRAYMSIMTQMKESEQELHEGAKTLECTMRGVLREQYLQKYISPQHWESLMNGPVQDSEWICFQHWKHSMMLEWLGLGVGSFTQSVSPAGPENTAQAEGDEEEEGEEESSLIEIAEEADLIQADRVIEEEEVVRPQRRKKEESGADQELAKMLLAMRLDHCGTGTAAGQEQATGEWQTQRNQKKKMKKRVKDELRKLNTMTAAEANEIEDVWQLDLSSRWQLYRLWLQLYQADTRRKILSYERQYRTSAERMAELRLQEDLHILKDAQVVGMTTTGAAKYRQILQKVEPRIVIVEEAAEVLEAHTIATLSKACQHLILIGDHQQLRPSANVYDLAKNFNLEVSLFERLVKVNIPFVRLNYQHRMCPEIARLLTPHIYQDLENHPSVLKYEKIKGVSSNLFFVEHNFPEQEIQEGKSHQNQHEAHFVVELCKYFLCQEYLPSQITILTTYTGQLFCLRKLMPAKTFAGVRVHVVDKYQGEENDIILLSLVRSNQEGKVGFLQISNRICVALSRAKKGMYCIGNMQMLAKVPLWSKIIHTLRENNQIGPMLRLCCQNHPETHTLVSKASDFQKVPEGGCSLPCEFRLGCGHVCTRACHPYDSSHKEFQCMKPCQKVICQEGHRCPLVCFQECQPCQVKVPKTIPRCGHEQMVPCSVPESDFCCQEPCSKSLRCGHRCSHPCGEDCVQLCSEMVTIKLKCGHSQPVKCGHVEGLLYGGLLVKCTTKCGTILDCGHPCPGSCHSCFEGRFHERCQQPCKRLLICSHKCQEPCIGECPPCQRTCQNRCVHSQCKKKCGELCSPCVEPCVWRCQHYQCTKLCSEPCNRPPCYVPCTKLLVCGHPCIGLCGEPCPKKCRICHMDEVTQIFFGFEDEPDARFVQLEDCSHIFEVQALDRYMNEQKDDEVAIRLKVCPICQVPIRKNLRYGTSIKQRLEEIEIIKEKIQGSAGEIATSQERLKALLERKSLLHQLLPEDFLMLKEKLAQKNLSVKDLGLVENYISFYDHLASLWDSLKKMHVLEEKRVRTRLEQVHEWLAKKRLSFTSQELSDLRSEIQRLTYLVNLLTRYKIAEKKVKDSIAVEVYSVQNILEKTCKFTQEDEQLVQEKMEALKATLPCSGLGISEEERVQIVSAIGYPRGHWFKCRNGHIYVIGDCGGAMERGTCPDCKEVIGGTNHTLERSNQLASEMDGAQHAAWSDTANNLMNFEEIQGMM

| Sequence | EC50 (PARP12) [µM] | EC50 (MCM4) [µM] | EC50 (ZNFX1) [µM] | EC50 (CSTF2T) [µM] |
| --- | --- | --- | --- | --- |
| AAUAAA | 11.2 | 0.05 |  |  |
| UAUUUAU |  |  | 0.436 | 0.357 |
